The results in this text go back to patent publication US5621078.

The target of this assay is epidermal growth factor receptor (Homo sapiens (Human)) (UniProt P00533).

On to TGF-alpha - PE40 AB (ligand), for which the A431 CELL KILLING EC50 pM stood at 47 pM.
